Biological target: T1, cnd2_schpo cnd2 (UniProt Q9Y7R3)
T1 sequence: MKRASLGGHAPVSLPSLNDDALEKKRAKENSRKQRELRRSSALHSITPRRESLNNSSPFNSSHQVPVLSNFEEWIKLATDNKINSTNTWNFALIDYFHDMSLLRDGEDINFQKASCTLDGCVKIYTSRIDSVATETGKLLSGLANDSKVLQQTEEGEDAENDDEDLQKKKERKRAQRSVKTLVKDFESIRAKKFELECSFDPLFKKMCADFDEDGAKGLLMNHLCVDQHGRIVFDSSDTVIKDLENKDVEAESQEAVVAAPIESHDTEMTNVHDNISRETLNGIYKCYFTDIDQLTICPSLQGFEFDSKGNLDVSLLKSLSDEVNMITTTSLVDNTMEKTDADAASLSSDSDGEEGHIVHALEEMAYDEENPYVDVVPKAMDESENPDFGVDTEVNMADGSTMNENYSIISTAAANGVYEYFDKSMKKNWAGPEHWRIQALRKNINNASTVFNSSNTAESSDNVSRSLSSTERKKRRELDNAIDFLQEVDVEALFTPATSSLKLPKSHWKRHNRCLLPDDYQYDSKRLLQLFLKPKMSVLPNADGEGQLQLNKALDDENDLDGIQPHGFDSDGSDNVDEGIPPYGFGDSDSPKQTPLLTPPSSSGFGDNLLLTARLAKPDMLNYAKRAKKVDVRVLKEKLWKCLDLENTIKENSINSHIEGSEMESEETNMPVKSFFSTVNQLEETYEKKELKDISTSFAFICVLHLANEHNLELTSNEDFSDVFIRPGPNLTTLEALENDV

Substance	effect of a mutation on the interaction
Histone H2A-beta (Schizosaccharomyces pombe (strain ATCC 38366 / 972)) (from UniProt P04910) K14A;R19A;K22A	disrupting interaction strength
Histone H2A-beta (Schizosaccharomyces pombe (strain ATCC 38366 / 972)) (from UniProt P04910) R19A	decreasing interaction
Histone H2A-beta (Schizosaccharomyces pombe (strain ATCC 38366 / 972)) (from UniProt P04910) K5A;K9A;K14A;R19A;K22A	disrupting interaction strength

From IntAct's records for PubMed 21633354
